# According to the DeepSol protein solubility set:
# Assay: soluble on expression in E. coli; label from the status in PepcDB or PDB records
row,Sequence,soluble on expression in E. coli
1,MRTIPPDDVYISSTLPFEETTTEMMTTMETSTMTEKVCPEMPATTCMDLIKLGAKLELAEVDGCQVVQCTGGQIPRLITRNSVFSPKLYAGLSDATIVFPVPPTTLAGFGGKSFFDYYGLICDTFNGNFYWTMTKYPDGLIDLGGGQPILGSDGSYDGKQAPIEQVDCQEPK,not soluble
2,MRTLFFIPSMGSVRLPLIDFLVKNDIEYVILSRRNHVAVQREIALDMFLEMKDYDTLAFLDEDVVPIEIDFQKVEAKFNEGYDVVCGYYYLKTLRGYSVYRKDWEKEIFDGEVNGCGLGFTFIKREFLEKIKRPAFLAFKPIESPHWIGEDVYFFSTHKPRTYALSSLKAYHFIDERLALSPDRKLILQNDHVARIKHHHHHH,soluble
3,MRTPIALSLALCLSLFPSFASAEEAAPEGEGANKPVYVDLTPALVGNYGSGPRLQYYKADIALQVADKDAATKVEHHEPLIRNQLIMLFAQQTDQSLGTVEAKESLRQEALKQVQQTLEQEEGKPLVTDLLFNNLIVQP,not soluble
4,MRVFYDKDCDLSIIQGKKVAIIGYGSQGHAHACNLKDSGVDVTVGLRSGSATVAKAEAHGLKVADVKTAVAAADVVMILTPDEFQGRLYKEEIEPNLKKGATLAFAHGFSIHYNQVVPRADLDVIMIAPKAPGHTVRSEFVKGGGIPDLIAIYQDASGNAKNVALSYACGVGGGRTGIIETTFKDETETDLFGEQAVLCGGCVELVKAGFETLVEAGYAPEMAYFECLHELKLIVDLMYEGGIANMNYSISNNAEYGEYVTGPEVINAESRAAMRNALKRIQDGEYAKMFITEGAANYPSMTAYRRNNAAHPIEQIGEKLRAMMPWIAANKIVDKSKN,soluble
5,MRVGIPTETKNNEFRVAITPAGVAELTRRGHEVLIQAGAGEGSAITDADFKAAGAQLVGTADQVWADADLLLKVKEPIAAEYGRLRHGQILFTFLHLAASRACTDALLDSGTTSIAYETVQTADGALPLLAPMSEVAGRLAAQVGAYHLMRTQGGRGVLMGGVPGVEPADVVVIGAGTAGYNAARIANGMGATVTVLDINIDKLRQLDAEFCGRIHTRYSSAYELEGAVKRADLVIGAVLVPGAKAPKLVSNSLVAHMKPGAVLVDIAIDQGGCFEGSRPTTYDHPTFAVHDTLFYCVANMPASVPKTSTYALTNATMPYVLELADHGWRAACRSNPALAKGLSTHEGALLSERVATDLGVPFTEPASVLAHHHHHH,soluble
6,MRVISGSKKGRSLKAVAGTSTRPTTDKVKESIFNMIGPYFDGGRGLDLFAGSGGLGIEALSRGFEHCIFVDRDFKAIQTVKSNLKTLELTKHAQVYRNDAERALHAAAKRETGFRGIFLDPPYKEQKLKALLTLIDEYQMLEEDGFIVAEHDREVELPETVEILLEHHHHHH,soluble
7,MRVLFIGDVFGQPGRRVLQNHLPTIRPQFDFVIVNMENSAGGFGMHRDAARGALEAGAGCLTLGNHAWHHKDIYPMLSEDTYPIVRPLNYADPGTPGVGWRTFDVNGEKLTVVNLLGRVFMEAVDNPFRTMDALLERDDLGTVFVDFHAEATSEKEAMGWHLAGRVAAVIGTHTHVPTADTRILKGGTAYQTDAGFTGPHDSIIGSAIEGPLQRFLTERPHRYGVAEGRAELNGVALHFEGGKATAAERYRFIED,soluble
8,MRVLITGGNRGLGLQLVKVFHENGHIIYPLVRTEVAVTQLKQMFSCRCFPILADLAADESTEQIKKQLEEYTEYMDLVINNAGITGKETEVLHTNSEELTDLFNIHCLGVIRAVKGTYMALAKSDHPRIINVSSRLGSLHKMANKEFPQGHFSYSYRIAKAAQNMLTLCLQQEFENKGISVTAIHPGKLKTEIGAFDANMTPAEGTKNIYDWVIDSNEDLSGQFIEPGVGEIKW,not soluble
9,MRVLLVTGKLAEEMVRKYGKGADVKVYNIDIAAFITPSMLENEDFSGYDLVLVPGLTYSHNWEDFERRKGVKVRLGPIHAYDLQHVLKLIGKVEFSHKIPACRLVESLRAEETLREIDALDEDCAFEIGGVKVGGSSRMKVVAEIASFCDFDDLRAKIDHYTESGADIIDIGVPLEFDKEWLHKTLKIAVDHSKLPLSIDTFSSKAIEIAVKHGVDMVMSISMDNLKALDLIENQAVVVVERDIDGLLNLVERVGEKVERVIADPILDPPLKVAESIGRYAEFRRRDEKTPLLFGAGNVTELSDADSIGINALLAFIAEELKCNLLFTTEASPKTFGSVRELNIASYLAKAAKIRNSPPKDAGVSLLALKEKVRYEERVELDDFVRAEETREFVRDPLGDFIIQVVDGKIVCKHDRMTIVGEKAKEVADTAIKNNLLSRLDHAAYLGRELMKAEIAALLKKSYIQDRELNFGFYQK,not soluble
10,MRVVIVGAGLAGLAAAVDLVDAGHRVEIYESRPFVGGKVSSWQDADGNHIEMGLHVFFYNYANLFELMTKVGAIANLLPKEHTHTFINRGGQVGELDFRFPLGAPFNGLKAFFTTRQLSAADKFFNAIALGTSPVVRGLVDYEGAMRQIRALDCMSFAEWFRRHGGSENSLKRLWNPISYALGFIDTEHMSARCMLTIFMMFAAKTTASRLNMLKGSPAEYLLKPLVNYIEARGAKIHLRRRVKEILFRGEDASTWRVEGLVIPRGEALETVTADAYLCACDVPGIQRLIPEAWRSHPTFDNIFKLEAVPVATVQLRFDGWVTELQDPRKQKQVAATGIDNLLYTADADFSCFADLALTSPADYYREGQGSLLQVVLTPGDPFIKASNEEIAQHVLRQVHELFPSSRHLNMTWYSVVKLAQSLYREAPGMDPYRPPQKTPVPNFYLAGSYTQQDYIDSMEGATMSGRQAAQAILAGGHPLEHHHHHH,soluble
11,MRWKLLFALLAALLLAACSQSSERVVIGSKPFNEQYILANMIAILLEENGYKAEVKEGLGGTLVNYEALKRNDIQLYVEYTGTAYNVILRKQPPELWDQQYIFDEVKKGLLEADGVVVAAKLGFRDDYALAVRADWAEENGVEKISDLAEFADQLVFGSDPEFASRPDGLPQIKKVYGFEFKEVKQMEPTLMYEAIKNKQVDVIPAYTTDSRVDLFNLKILEDDKGALPPYDAIIIVNGNTAKDEKLISVLKLLEDRIDTDTMRALNYQYDVEKKDAREIAMSFLKEQGLVK,not soluble
12,MRWNICVVGAGKIGQMIAALLKTSSNYSVTVADHDLAALAVLNRMGVATKQVDAKDEAGLAKALGGFDAVISAAPFFLTPIIAKAAKAAGAHYFDLTEDVAATNAVRALAEDSQT,soluble
13,MRWVSALEKRNFLTSFLHNHRLKHPDARFVLKYLLQHPHLLENVQFTETEQKQGRWLIISTAMAEEEGLVFYRRGQKSTSLAAIMGDLALHPNEPLYLTLHFPGKARNFSYLRLIDHQAFENVRRHERHEKMAKAAEQVLDEALKRHEVSILKMQIDQALDRKDMEWFQMLTEQLKKYEGQS,not soluble
14,MRYDVSSNSLYVFCSIVLFSDLRFRIGGKYMAERHMFLKKDPSKENSIIVSNIPAFVGEGVVLAIIDQFASFEVEESFVQRSNTADNSLSQGQLTMSITFDKPEAVIQTLALCQDVGPFTITDFLEDPEFPSVLKDSTTLYRKLFPSEEQIQEMADTYVERYDTEQTEARKEAKRKYSEPDEDGWITVTKAKKAAKSVKLKKEDVPLIGGLNNKKKKVDLAYYTFQIKKNRQEKAQELLKKFEEDRKRITQLKQARNFKPI,not soluble
15,MRYLSNLLCLTLTFIVCFGAERDADEEAYVLMNLLKQSIDMDQTEALPGFVSRDFTYDTCKGIWNRDKYMEYLKVFSSRPDGGMQPMSTDWKVTNAHFNDNTLYFNIHNYNQHLAIYPDLEFEAKKIGKDERYILTRGKISKCGTLEKEY,not soluble
16,MSAAEEVDGLGVVRPHYGSVLDNERLTAEEMDERRRQNVAYEYLCHLEEAKRWMEACLGEDLPPTTELEEGLRNGVYLAKLGNFFSPKVVSLKKIYDREQTRYKATGLHFRHTDNVIQWLNAMDEIGLPKIFYPETTDIYDRKNMPRCIYCIHALSLYLFKLGLAPQIQDLYGKVDFTEEEINNMKIELEKYGIQMPAFSKIGGILANELSVDEAALHAAVIAINEAIDRRVAADTFTALKNPNAMLVNLEEGLAPTYQDVLYQAKQDKMTNAKNRTENSDRERDVYEELLTQAEIQGNVNKVNTSSALADISLALEQGCAVTLLKALQSLALGLRGLQTQNSDWYMKQLQSDLQQKRQSGQTDPLQKEEVQAGVDAANSAAQQYQRRKRPLAPGHRSVQGRAVVALCH,soluble
17,MSAATKKRYITNKVGSEFYELVDEDIIAQVRQSRGNNLHEVLDQNGDSYVVSMPTKFRKSVWLRRDQFVVVRPITEGDKVKGEIEYILDQDNVLYIRELGKWPTCFEENALKMTREAKRGQTSDKMIDDDMLPPSESEEEDESEGEETYDEDDVDDEEEEEFDTYNPNRMQAPSK,not soluble
18,MSADNLLLDFTSPGAIPPDPAEVVRRVVDETQTTMRALESLLENERIEDMTGWRLLAMFYLATDRLNDLAKIEKQYKSITGVSLSADLKQKYPQWFNGEAVSHPVVFEIPKKITAAALPDSIIIQRGQCSPGGILLDFSQVQEIDNDGLKKLAQLFSSLAQENTRPKLRQADRFITCLQNKAETGTGTRAIWDVLFAYERFRDDREAFEEKAIKFAVLYGISPPSWE,not soluble
19,MSAEVTLHDNIHYDLSADCQHCFGLCCVALPYAKSADFAFDKDGGTPCRNLQSNYQCSIHKDLREKGFRGCSAYECFGAGQKVSQITYEGKDWRNSPETANQMFDVFPIMQQLHEMLWYLHEALSIDIAKPIHSELRTTFEKIERLTRLSKERLLTLQVDEHRAEVNEWLLKTSELVRAQARHPKLPKKVSRGSVLIGAKLKGLDLRGANLRGALLIAADLRNADLRMTDFIGADMRDADLSGADLTGSIFLTQAQVNAANGDSNTKLPLSVRTPAHWKLEHHHHHH,not soluble
20,MSAIENFDAHTPMMQQYLRLKAQHPEILLFYRMGDFYALFYDDAKRASQLLDISLTKRGASAGEPIPMAGIPYHAVENYLAKLVNQGESVAICEQIGDPATSKGPVERKVVRIVTPGTISDEALLQERQDNLLAAIWQDSKGFGYATLDISSGRFRLSEPADRETMAAELQRTNPAELLYAEDFAEMSLIEGRRGLRRRPLWEFEIDTARQQLNLQFGTRDLVGFGVENAPRGLCAAGCLLQYAKDTQRTTLPHIRSITMEREQDSIIMDAATRRNLEITQNLAGGAENTLASVLDCTVTPMGSRMLKRWLHMPVRDTRVLLERQQTIGALQDFTAGLQPVLRQVGDLERILARLALRTARPRDLARMRHAFQQLPELRAQLETVDSAPVQALREKMGEFAELRDLLERAIIDTPPVLVRDGGVIASGYNEELDEWRALADGATDYLERLEVRERERTGLDTLKVGFNAVHGYYIQISRGQSHLAPINYMRRQTLKNAERYIIPELKEYEDKVLTSKGKALALEKQLYEELFDLLLPHLEALQQSASALAELDVLVNLAERAYTLNYTCPTFIDKPGIRITEGRHPVVEQVLNEPFIANPLNLSPQRRMLIITGPNMGGKSTYMRQTALIALMAYIGSYVPAQKVEIGPIDRIFTRVGAADDLASGRSTFMVEMTETANILHNATEYSLVLMDEIGRGTSTYDGLSLAWACAENLANKIKALTLFATHYFELTQLPEKMEGVANVHLDALEHGDTIAFMHSVQDGAASKSYGLAVAALAGVPKEVIKRARQKLRELESIS,soluble
21,MSAKNRLDVFDKKTRDVIESDLVKMRGYKRNIGSRNQEMTMKNVEKKVEQMGAKNEEMFSMISKIMQKPNSTGHLQWDSQTLADLMNKSDSFDDDQESLNMPRSSESSAMSVRNRTLERQSEPVRKSPKAAPKVKNEAGITASYVTSEMSDRRSIDEVMVRAAKNAKREEKFDLGFFKFISLAGHILESSCKHSEDQEDPSCLKCKYDRELKLEERPEMVFARNSLTIQFGRLGSIEFNALDALKMVCADRLPDVKVGASTVWQSARQDRIQQISEHQKPFDWTYTTHYKGTVTGCQVTPTTERIDMERLKRRDEILFSSSITLFEDELADHGIAQLLARVRVMRGYFFVLLRFYMRVDNVLLRVCDTRIVGNEFDGHVIREWQLREAKYGNLGHVDPEELLDVDRAWMHLPVVEEHFDRVSVDRERLF,not soluble
